B1: cationic antimicrobial protein of 37kDa (CAP37) (natural protein, human, UniProt P20160 27-251, looked up)
chain: IVGGRKARPRQFPFLASIQNQGRHFCGGALIHARFVMTAASCFQSQNPGVSTVVLGAYDLRRRERQSRQTFSISSMSENGYDPQQNLNDLMLLQLDREANLTSSVTILPLPLQNATVEAGTRCQVAGWGSQRSGGRLSRFPRFVNVTVTPEDQCRPNNVCTGVLTRRGGICNGDGGTPLVCEGLAHGVASFSLGPCGRGPDFFTRVALFRDWIDGVLNNPGPGPA
notes: cationic antimicrobial protein of 37kDa (CAP37, encoded by AZU1), human, purified from neutrophils, >95% pure by SDS-PAGE; also called AZU1; source: purified from human neutrophils; bought: Athens Research & Technology
B2: neutrophil elastase (enzyme)
chain: IVGGRRARPHAWPFMVSLQLRGGHFCGATLIAPNFVMSAAHCVANVNVRAVRVVLGAHNLSRREPTRQVFAVQRIFENGYDPVNLLNDIVILQLNGSATINANVQVAQLPAQGRRLGNGVQCLAMGWGLLGRNRGIASVLQELNVTVVTSLCRRSNVCTLVRGRQAGVCFGDSGSPLVCNGLIHGIASFVRGGCASGLYPDAFAPVAQFVNWIDSIIQ
modifications: native N-glycosylated, disulfide-bonded active enzyme from human neutrophils. Limits are not printed: the signal and activation dipeptide are removed (starts at 30), and the C-terminal propeptide is …
B3: cathepsin G (enzyme, human, UniProt P08311 21-244, looked up)
chain: IIGGRESRPHSRPYMAYLQIQSPAGQSRCGGFLVREDFVLTAAHCWGSNINVTLGAHNIQRRENTQQHITARRAIRHPQYNQRTIQNDIMLLQLSRRVRRNRNVNPVALPRAQEGLRPGTLCTVAGWGRVSMRRGTDTLREVQLRVQRDRQCLRIFGSYDPRRQICVGDRRERKAAFKGDSGGPLLCNNVAHGIVSYGKSSGVPPEVFTRVSSFLPWIRTTMRS
notes: cathepsin G (CTSG), human, purified from neutrophils, >95% pure by SDS-PAGE; also called CG; CTSG; source: purified from human neutrophils; bought: Athens Research & Technology

Key:
Details in all cases: both partners purified
[1] = target: T1, Recombinant human RAGE Fc chimera (human, UniProt Q15109 23-342); assay: ELISA; competition: RAGE Fc chimera coated (0.5 μg/well, 83.3 nM); Aβ1-42 (11 nM) added at the same time as CAP37 (0–2.5 μM) or neutrophil elastase (0–0.5 μM); no protease inhibitors; bound Aβ1-42 detected with anti-APP/Aβ
T1 construct: receptor for advanced glycation end products (RAGE), human, recombinant, fused to Fc; No catalogue number printed; also called receptor for advanced glycation end products; AGER; source: bought: R&D Systems
T1 sequence (Q15109 23-342, change not shown): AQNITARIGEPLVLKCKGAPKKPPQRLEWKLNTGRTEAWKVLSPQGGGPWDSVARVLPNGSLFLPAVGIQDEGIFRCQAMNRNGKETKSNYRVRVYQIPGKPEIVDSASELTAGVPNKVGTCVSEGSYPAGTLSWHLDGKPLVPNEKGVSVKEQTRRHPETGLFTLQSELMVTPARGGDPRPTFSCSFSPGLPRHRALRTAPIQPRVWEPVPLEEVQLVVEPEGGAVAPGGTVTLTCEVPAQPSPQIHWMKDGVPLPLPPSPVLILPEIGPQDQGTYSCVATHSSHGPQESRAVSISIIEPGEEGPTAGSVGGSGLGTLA

[2] = target: T2, Amyloid beta 1–42 (Aβ1–42) (UniProt P05067 672-713); assay: ELISA; CAP37, neutrophil elastase or cathepsin G (0.5 μg/well) or BSA (1000 μg/well) coated; Aβ1-42 0–111 nM in PBST with 0.1% BSA and protease inhibitor cocktail; bound Aβ1-42 detected with anti-APP/Aβ; BSA subtracted as background for KD
T2 construct: amyloid beta 1-42, the cut product of amyloid precursor protein (APP); numbers count on: the Aβ peptide; source: bought: Bachem (95.2% pure by HPLC), dissolved in 1 mM sodium hydroxide

[3] = target: T1, Recombinant human RAGE Fc chimera; assay: ELISA; CAP37, neutrophil elastase, cathepsin G or Aβ1-42 (0.5 μg/well) or BSA (1000 μg/well) coated on Maxisorp plates in PBS pH 7.4; RAGE Fc chimera 0–3.3 nM in PBST with 0.1% BSA, 37°C, 70 min; bound RAGE detected with goat anti-RAGE; BSA subtracted as background for KD

Binder | IC50 [1] | Kd [2] | Kd [3]
B1 | 1280 nM | 37.9 nM | 1.26 nM
B2 | – | – | 3.25 nM
B3 | – | 20.7 nM | 0.45 nM
